The values below are quoted from earlier work in PMC10974892.

The target in data set [1] is OmpC (Escherichia coli) (UniProt P06996).
The target of data set [2] is intelectin-1 (hIntL-1) (Homo sapiens) (UniProt Q8WWA0).
Data set [3] addresses PhoE (Escherichia coli) (UniProt P02932).
Sequence of UniProt P02932 (P02932 22-351): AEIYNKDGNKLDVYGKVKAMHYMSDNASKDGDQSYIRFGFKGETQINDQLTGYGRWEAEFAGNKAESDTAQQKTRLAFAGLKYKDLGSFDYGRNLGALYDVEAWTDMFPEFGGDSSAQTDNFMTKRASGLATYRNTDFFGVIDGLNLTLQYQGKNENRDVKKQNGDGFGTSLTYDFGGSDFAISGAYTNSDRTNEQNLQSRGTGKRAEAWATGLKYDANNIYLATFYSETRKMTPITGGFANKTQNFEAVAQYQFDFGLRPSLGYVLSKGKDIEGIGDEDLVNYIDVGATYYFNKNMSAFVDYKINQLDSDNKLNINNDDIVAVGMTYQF

Sequence of UniProt Q8WWA0 (Q8WWA0 19-298): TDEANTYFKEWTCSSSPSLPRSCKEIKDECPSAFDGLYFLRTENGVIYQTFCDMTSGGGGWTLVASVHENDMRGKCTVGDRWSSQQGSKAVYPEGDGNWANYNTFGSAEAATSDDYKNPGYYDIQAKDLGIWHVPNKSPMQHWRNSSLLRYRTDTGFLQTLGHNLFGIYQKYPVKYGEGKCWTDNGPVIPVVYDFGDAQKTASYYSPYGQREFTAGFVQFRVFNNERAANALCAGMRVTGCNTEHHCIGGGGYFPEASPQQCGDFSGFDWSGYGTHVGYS
Sequence of UniProt P06996 (P06996 22-367): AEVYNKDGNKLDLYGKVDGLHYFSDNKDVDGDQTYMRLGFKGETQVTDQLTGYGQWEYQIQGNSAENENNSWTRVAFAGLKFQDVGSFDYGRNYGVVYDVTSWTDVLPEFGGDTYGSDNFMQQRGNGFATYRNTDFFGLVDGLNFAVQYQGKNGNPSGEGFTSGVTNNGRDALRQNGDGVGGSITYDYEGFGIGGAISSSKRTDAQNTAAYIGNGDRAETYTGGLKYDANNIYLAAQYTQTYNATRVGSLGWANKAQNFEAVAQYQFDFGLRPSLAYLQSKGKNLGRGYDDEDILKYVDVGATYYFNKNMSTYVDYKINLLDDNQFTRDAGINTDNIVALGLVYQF

In the case of lactoferrin (from UniProt P02788), the dissociation constant (Kd) in data set [1] was 39 nM; in data set [2] it was 500 nM; in data set [3], 103 nM.

As usually defined, the Kd is the constant that tells how readily two partners part at equilibrium.
